According to patent publication US20250304707A1 (JOINT STOCK COMPANY BIOCAD, published 2025):
Residue numbers refer to the chain shown, from its start. Numbers in names are those of the source.

T1: human BCMA (soluble analyte of Examples 8 and 14) (human, UniProt Q02223 1-54, limits assumed)
T1 sequence (looked up): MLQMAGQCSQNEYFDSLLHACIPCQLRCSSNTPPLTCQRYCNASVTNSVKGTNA

T2: human BCMA on the surface of RPMI8226 cells (human, UniProt Q02223 1-184)
T2 construct: whole, on cells; also called BCMA receptor; RPMI8226 (BCMA+)
T2 sequence (looked up): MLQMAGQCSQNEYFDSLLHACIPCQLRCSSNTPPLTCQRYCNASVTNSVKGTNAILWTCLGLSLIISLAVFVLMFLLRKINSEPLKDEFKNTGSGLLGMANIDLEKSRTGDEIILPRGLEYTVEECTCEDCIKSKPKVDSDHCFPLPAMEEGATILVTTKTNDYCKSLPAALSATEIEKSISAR

B1: Antibody 01-033 (antibody, human IgG1, kappa, L234A L235A, V domains shown)
VH: EVQLVQSGGGLVQPGGSLRLSCAASGFTFSSGLMSWVRQAPGGFEWVSGYNGGSDRAGFADSVEGRFTISRDNAKNTLYLQMNSLKPEDTAVYYCARYIANSGTYYWDYWGQGTTVTVSS
VL: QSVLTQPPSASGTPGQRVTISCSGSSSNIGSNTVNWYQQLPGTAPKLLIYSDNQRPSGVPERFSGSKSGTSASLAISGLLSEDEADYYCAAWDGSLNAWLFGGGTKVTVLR
notes: Full-length human IgG1 with L234A/L235A (pEE-HCLALA IgG1 vector) and CK light chain constant domain (pEE-CK), made in CHO-T cells; also called candidate 033
B2: Antibody 01-001 (antibody, human IgG1, kappa, L234A L235A, V domains shown)
VH: EVQLVQSGGGLVQPGGSLRLSCAVSGFTLSSSAMSWVRQAPGKGFEWVSGYNGGSDRAGFADSVEGRFTISRDNAKNTLYLQMNSLKPEDTAVYYCARYIANSGTYYWDYWGQGTLVTVSS
VL: QPVLTQPPSASGTPGQRVTISCSGSSSNIGSNTVNWYQQLPGTAPKLLIYNDSQRPSGVPDQFSGSKSGTSASLAISGLQSDNEADYYCAAWDGSLNVWMFGGGTKVTVLR
notes: Full-length human IgG1 with L234A/L235A (pEE-HCLALA IgG1 vector) and CK light chain constant domain (pEE-CK), made in CHO-T cells; also called candidate 01
B3: Antibody 01-026 (antibody, human IgG1, kappa, L234A L235A, V domains shown)
VH: B2 VH with P14S, L20V, V24A, L29F, S32G, A33L, F60Y, A61T, E65K, L116T
VL: QSVLTQPPSVSGAPGQRVTISCTGSSSNIGAGYDVHWYQQLPGTAPKLVIYGNTNRPSGVPDRFSGSKSGTSASLAISGLQSEDEADYYCAAWDDSLNGWVFGGGTKLTVLR
notes: Full-length human IgG1 with L234A/L235A (pEE-HCLALA IgG1 vector) and CK light chain constant domain (pEE-CK), made in CHO-T cells; also called candidate 026
B4: Antibody 01-037 (antibody, human IgG1, kappa, L234A L235A, V domains shown)
VH: B2 VH with P14S, L20V, V24A, L29F, S32G, A33L, F60Y, A61T, E65K, L116T
VL: SYVLTQPPSASGTPGQRVTISCSGTRSNIGTNTVNWYQQLPGTAPKLLIYRNNQRPSGVPDRFSGSKSGTSASLAISGLQSEDEADYYCAVWDDRVSAWLFGGGTKLTVLR
notes: Full-length human IgG1 with L234A/L235A (pEE-HCLALA IgG1 vector) and CK light chain constant domain (pEE-CK), made in CHO-T cells; also called candidate 037
B5: Antibody 01-006 (antibody, human IgG1, kappa, L234A L235A, V domains shown)
VH: B2 VH with A23S, V24A, L29F, S32G, A33L, F60Y, A61T, E65K
VL: QAVLTQPPSVSGTPGQRVTISCSGSTSNIGHRTVNWYQQFPGAAPKLLIYRNNQRPSGVPARFSGSKSGTSASLAISGLQSEDEADYHCAAWDDSLTAWVFGGGTQLTVLR
notes: Full-length human IgG1 with L234A/L235A (pEE-HCLALA IgG1 vector) and CK light chain constant domain (pEE-CK), made in CHO-T cells; also called candidate 06
B6: Antibody 01-025 (antibody, human IgG1, kappa, L234A L235A, V domains shown)
VH: B2 VH with P14S, L20V, V24A, L29F, S32G, A33L, F60Y, A61T, E65K, L116T
VL: QPVLTQPPSVSEAPRQRVTISCSGSSSNIGNNAVNWYQQLPGKAPKLLIYSTNQRPSGVPDRFSGSKSGTSASLAISGLQSEDEADYYCAAWDDRVSAWLFGGGTKLTVLR
notes: Full-length human IgG1 with L234A/L235A (pEE-HCLALA IgG1 vector) and CK light chain constant domain (pEE-CK), made in CHO-T cells; also called candidate 025
B7: Antibody 01-016 (antibody, human IgG1, kappa, L234A L235A, V domains shown)
VH: B2 VH with L29F, A33V
VL: B6 VL with Y50F, S51K, T52N, A75V, D94G, R95S, V96L, S97N, L100M
notes: Full-length human IgG1 with L234A/L235A (pEE-HCLALA IgG1 vector) and CK light chain constant domain (pEE-CK), made in CHO-T cells; also called candidate 016
B8: Antibody 01-027 (antibody, human IgG1, kappa, L234A L235A, V domains shown)
VH: B2 VH with P14S, L20V, V24A, L29F, S32G, A33L, F60Y, A61T, E65K, L116T
VL: QAVLTQPPSASGTPGQRVSISCSGGISNIGSNIVNWYQHLPGTAPKLLIYSGNQRPSGVPDRFSGSKSGTSASLAISGLQSEDEADYYCSSWDSDLRNWVFGGGTKLTVLR
notes: Full-length human IgG1 with L234A/L235A (pEE-HCLALA IgG1 vector) and CK light chain constant domain (pEE-CK), made in CHO-T cells; also called candidate 027
B9: Antibody 01-021 (antibody, human IgG1, kappa, L234A L235A, V domains shown)
VH: B2 VH with E1Q, V24A, L29F, S32G, A33L
VL: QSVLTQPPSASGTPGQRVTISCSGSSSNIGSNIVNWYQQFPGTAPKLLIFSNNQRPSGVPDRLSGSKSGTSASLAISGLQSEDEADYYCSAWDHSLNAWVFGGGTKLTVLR
notes: Full-length human IgG1 with L234A/L235A (pEE-HCLALA IgG1 vector) and CK light chain constant domain (pEE-CK), made in CHO-T cells; also called candidate 021
B10: Antibody 01-030 (antibody, human IgG1, kappa, L234A L235A, V domains shown)
VH: B2 VH with L20V, V24A, T28S, L29F, S32G, A33L
VL: QSALTQPPSASGTPGQRVTISCSGSISNIGSNTVNWYQHLPGTAPKLLIYNHNQRPSGVPDRFSGSTSGTSASLAISGLQSEDEADYFCATWDDSLSAWLFGGGTKLTVLR
notes: Full-length human IgG1 with L234A/L235A (pEE-HCLALA IgG1 vector) and CK light chain constant domain (pEE-CK), made in CHO-T cells; also called candidate 030
B11: Antibody 01-024 (antibody, human IgG1, kappa, L234A L235A, V domains shown)
VH: EVQLVQSGGGLVQSGGSLRVSCAASGFTFSSGLMSWVRQAPGKGFEWVSCYNGGSDRAGYTDSVKGRFTISRDNAKNTLYLQMNSLKPEDTAVYYCARYIANSGTYYWDYWGQGTTVTVSS
VL: B8 VL
notes: Full-length human IgG1 with L234A/L235A (pEE-HCLALA IgG1 vector) and CK light chain constant domain (pEE-CK), made in CHO-T cells; also called candidate 024
B12: Antibody 01-022 (antibody, human IgG1, kappa, L234A L235A, V domains shown)
VH: B11 VH with C50G
VL: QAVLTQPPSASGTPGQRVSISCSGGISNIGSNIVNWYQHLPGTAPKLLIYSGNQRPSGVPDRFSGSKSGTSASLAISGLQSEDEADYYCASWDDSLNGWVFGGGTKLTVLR
notes: Full-length human IgG1 with L234A/L235A (pEE-HCLALA IgG1 vector) and CK light chain constant domain (pEE-CK), made in CHO-T cells; also called candidate 022

Target: T1, human BCMA (soluble analyte of Examples …)
Assay: BLI competition, APRIL/TNFSF13 (competitor) on AR2G sensors, premix 710 nM antibody + 71 nM human BCMA; without antibody 0.6588 nm

Binder | Response (premix of antibody and BCMA on APRIL sensors) [nm]
B1 | -0.0078
B2 | -0.0081
B3 | 0.0111
B4 | 0.0304
B5 | 0.0464
B6 | 0.0259
B7 | -0.0062
B8 | 0.017
B9 | -0.0015
B10 | -0.0066
B11 | 0.0151
B12 | 0.013

Target: T2, human BCMA on the surface of RPMI8226 …
Assay: flow cytometry on RPMI8226 (BCMA+) cells, anti-human Fc-PE, one antibody concentration (not given)

Binder | Fluorescent signal level (sample/background)
B1 | 14.7
B2 | 10.7
B3 | 12.1
B4 | 11.7
B5 | 9.61
B6 | 15
B7 | 7.87
B8 | 19.1
B9 | 9.99
B10 | 16.5
B11 | 19.9
B12 | 9.57
